From patent publication US20220306715A1 (SHATTUCK LABS, published 2022)

Biological target: IL-6
Test: cell-based or functional assay

Sequence of IL-6 (P05231 30-212): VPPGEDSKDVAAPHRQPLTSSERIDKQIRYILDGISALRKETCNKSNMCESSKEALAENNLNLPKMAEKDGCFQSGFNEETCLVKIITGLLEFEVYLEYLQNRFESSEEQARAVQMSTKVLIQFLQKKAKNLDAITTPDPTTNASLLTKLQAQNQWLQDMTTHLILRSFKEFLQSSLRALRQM

B1: human IL-6R-Fc-IL-35 chimeric protein (Fc fusion)
chain 1: ELLDPCGYISPESPVVQLHSNFTAVCVLKEKCMDYFHVNANYIVWKTNHFTIPKEQYTIINRTASSVTFTDIASLNIQLTCNILTFGQLEQNVYGITIISGLPPEKPKNLSCIVNEGKKMRCEWDGGRETHLETNFTLKSEWATHKFADCKAKRDTPTSCTVDYSTVYFVNIEVWVEAENALGKVTSDHINFDPVYKVKPNPPHNLSVINSEELSSILKLTWTNPSIKSVIILKYNIQYRTKDASTWSQIPPEDTASTRSSFTVQDLKPFTEYVFRIRCMKEDGKGYWSDWSEEASGITYEDRPSKAPSFWYKIDPSHTQGYRTVQLVWKTLPPFEANGKILDYEVTLTRWKSHLQNYTVNATKLTVNLTNDRYLATLTVRNLVGKSDAAVLTIPACDFQATHPVMDLKAFPKDNMLWVEWTTPRESVKKYILEWCVLSDKAPCITDWQQEDGTVHRTYLRGNLAESKCYLITVTPVYADGPGSPESIKAYLKQAPPSKGPTVRTKKVGKNEAVLEWDQLPVDVQNGFIRNYTIFYRTIIGNETAVNVDSSHTEYTLSSLTSDTLYMVRMAAYTDEGGKDGPEFTFTTPKFAQGEIEGSGSRKGGKRGSKYGPPCPPCPAPEFLGGPSVFLFPPKPKDQLMISRTPEVTCVVVDVSQEDPEVQFNWYVDGVEVHNAKTKPREEQFNSTYRVVSVLTVLHQDWLSGKEYKCKVSSKGLPSSIEKTISNATGQPREPQVYTLPPSQEEMTKNQVSLTCLVKGFYPSDIAVEWESNGQPENNYKTTPPVLDSDGSFFLYSRLTVDKSRWQEGNVFSCSVLHEALHNHYTQKSLSLSLGKDEGGEDGSGSRNLPVATPDPGMFPCLHHSQNLLRAVSNMLQKARQTLEFYPCTSEEIDHEDITKDKTSTVEACLPLELTKNESCLNSRETSFITNGSCLASRKTSFMMALCLSSIYEDLKMYQVEFKTMNAKLLMDPKRQIFLDQNMLAVIDELMQALNFNSETVPQKSSLEEPDFYKTKIKLCILLHAFRIRAVTIDRVMSYLNAS
chain 2: LAPRRCPAQEVARGVLTSLPGDSVTLTCPGVEPEDNATVHWVLRKPAAGSHPSRWAGMGRRLLLRSVQLHDSGNYSCYRAGRPAGTVHLLVDVPPEEPQLSCFRKSPLSNVVCEWGPRSTPSLTTKAVLLVRKFQNSPAEDFQEPCQYSQESQKFSCQLAVPEGDSSFYIVSMCVASSVGSKFSKTQTFQGCGILQPDPPANITVTAVARNPRWLSVTWQDPHSWNSSFYRLRFELRYRAERSKTFTTWMVKDLQHHCVIHDAWSGLRHVVQLRAQEEFGQGEWSEWSPEAMGTPWTESRSPPAENEVSTPMQALTTNKDDDNILFRDSANATSLPVQDSSSVPLPGSGSDEGGEDGSKYGPPCPPCPAPEFLGGPSVFLFPPKPKDQLMISRTPEVTCVVVDVSQEDPEVQFNWYVDGVEVHNAKTKPREEQFNSTYRVVSVLTVLHQDWLSGKEYKCKVSSKGLPSSIEKTISNATGQPREPQVYTLPPSQEEMTKNQVSLTCLVKGFYPSDIAVEWESNGQPENNYKTTPPVLDSDGSFFLYSRLTVDKSRWQEGNVFSCSVLHEALHNHYTQKSLSLSLGKRKGGKRGSGSRKGPPAALTLPRVQCRASRYPIAVDCSWTLPPAPNSTSPVSFIATYRLGMAARGHSWPCLQQTPTSTSCTITDVQLFSMAPYVLNVTAVHPWGSSSSFVPFITEHIIKPDPPEGVRLSPLAERQLQVQWEPPGSWPFPEIFSLKYWIRYKRQGAARFHRVGPIEATSFILRAVRPRARYYVQVAAQDLTDYGELSDWSLPATATMSLGK
EC50 of induction of apoptosis in IL-6 dependent DS-1 cells cultured 24 hours with IL-6 (caspase 3/7 luciferase assay): 0.0141 µM
